Measured values published in patent US20240182547A1 (MOGAM INSTITUTE FOR BIOMEDICAL RESEARCH, published 2024).
Numbering of substitutions follows the chain as printed.

B1: #18m (antibody, V domains shown)
VH: EVQLVESGGGLVKPGGSLRLSCAASGFTFTSYRMHWVRQAPGKGLEWVSSITGGGNYIEYADSVKGRFTISRDNAKNSLDLQMNSLRAEDTAIYYCARDMYGLGSYYSPNYFDPWGQGTLVTVSS
VL: QSVLTQPLSVSGAPGQRVTISCTGSSSNIGAGYDVHWYQQVPGTAPKLLIFGSTNRPSGVPDRFSGSKSGASASLAITGLQADDEADYYCQSYDRSLSHVFGTGTKVTVL
notes: Germline-edited (m) form of 2H9, heavy and light chain edited; IgG; also called 2H9 (modified)
B2: 10A6 (antibody, V domains shown)
VH: B1 VH with P114S
VL: SYELTQPPSVSGAPGQRVTISCTGSSSNIGAGYDVHWYQQLPGAAPRLLMFGNSNRPSGVPDRFSGSKSGTSASLAITGLQAEDEADYYCQSYDSSLSYVFGTGTKVTVLG
notes: IgG made in Expi293; also called #27; 27
B3: 2F1 (antibody, V domains shown)
VH: B1 VH
VL: QSVLTQPPSVSGAPGQRVTISCTGSSSNIGAGYDVHWYQQVPGTAPKLLIFGSTNRPSGVPDRFSGSKSGASASLAITGLQTEDEADYYCQSYDRSLSAWVFGGGTKLTVLG
notes: IgG made in Expi293; also called #24; 24
B4: 2H11 (antibody, V domains shown)
VH: B1 VH with E1Q, E6Q, L120T
VL: QSVLTQPPSVSGAPGQRVTISCTGSSSNIGAGYDVHWYQQLPGRAPKLLIFANTNRPSGVPDRFSGSKSGASASLAISGLQAEDEAHYYCQSYDRSLNVVFGGGTELTVLG
notes: IgG made in Expi293; also called #23; 23
B5: 2G4 (antibody, V domains shown)
VH: EVQLVESGGGLVKPGGSLRLSCAASGFTFSSYTMHWVRQAPGKGLEWVSSITGGSSYVDYSASVKGRFTISRDNAQSSLYLQMNSLRAEDTAVYYCARDDYGSGSYSNWFDPWGQGTLVTVSS
VL: QSVLTQPPSVSGAPGQRVTISCTGSSSNIGAGYDVHWYQQVPGTAPKLLIFGSTNRPSGVPDRFSGSKSGTSASLAITGLQADDEADYYCQSYDRSLSHVFGTGTKVTVLG
notes: IgG made in Expi293; also called #1
B6: 2G11 (antibody, V domains shown)
VH: B1 VH with K13Q
VL: B2 VL with S1Q, Y2S, E3V
notes: IgG made in Expi293; also called #29; 29
B7: 1E6 (antibody, V domains shown)
VH: B1 VH
VL: B5 VL with V41L, T44R, G52A, S53N, T71A
notes: IgG made in Expi293; also called #22; 22
B8: 2H9 (antibody, V domains shown)
VH: B1 VH with E1Q, Q3T, V5K
VL: B5 VL with Q1S, S2Y, V3E, P8L, T71A
notes: IgG made in Expi293; also called #18; 18
B9: 3H8 (antibody, V domains shown)
VH: B5 VH with A24G, Q115R, L118T
VL: B5 VL with S2P, P8L, V10A, A13T, V41L, T44R, G52A, S53N, D83E
notes: IgG made in Expi293; also called #16; 16
B10: 2H8 (antibody, V domains shown)
VH: B1 VH with V12A
VL: B2 VL with S1Q, Y2S, E3V, S95R, Y99H
notes: IgG made in Expi293; also called #26; 26
B11: 4E3 (antibody, V domains shown)
VH: B5 VH with A24G
VL: B5 VL with T71A
notes: IgG made in Expi293
B12: 2E9 (antibody, V domains shown)
VH: B5 VH with E1Q, Q3T, V5K, A24G, Q76K, S77N, Y80F
VL: B5 VL with V41L, T44R, G52A, S53N, T71A
notes: IgG made in Expi293; also called #14; 14
B13: 12E9 (antibody, V domains shown)
VH: B5 VH with S30T, T33R, S55G, S56N, V58I, D59E, S61A, A62D
VL: B5 VL with S2T, L4V, P7E, V41L, T44R, G52A, S53N, T71A
notes: IgG made in Expi293; also called #11; 11
B14: #12m (antibody, V domains shown)
VH: B5 VH with A24G, T28A, V58L, S61A, A62H, A75G, S77N, Y80F, A88T, W109Y
VL: B5 VL with T71A, A82T, D83E
notes: Germline-edited (m) form of 4F11, light chain edited; IgG; also called 4F11 (modified)
B15: 3E10 (antibody, V domains shown)
VH: B1 VH
VL: B5 VL with S2P, T71A, A82T, D83E
notes: IgG made in Expi293; also called #20; 20
B16: 4E1 (antibody, V domains shown)
VH: B5 VH with K13Q, S21A
VL: B2 VL with A44R, R47K, M50I, G52A, S54T, T71A, S95R, Y99H
notes: IgG made in Expi293; also called #17; 17
B17: 4F11 (antibody, V domains shown)
VH: B5 VH with A24G, T28A, V58L, S61A, A62H, A75G, S77N, Y80F, A88T, W109Y
VL: B5 VL with S2P, T71A, A82T, D83E
notes: IgG made in Expi293; also called #12; 12
B18: 4G4 (antibody, V domains shown)
VH: B5 VH with A24G
VL: B5 VL with S25N, I29L, V41L, F51Y, G52A, S53N, T71A, A82T, D83E
notes: IgG made in Expi293; also called #10; 10
B19: 2H3 (antibody, V domains shown)
VH: B5 VH with L11V, K13Q, P14S, G16R, A24G
VL: B5 VL with T71A, A82T, D83E
notes: IgG made in Expi293; also called 2F5; #65
B20: 10E7 (antibody, V domains shown)
VH: B1 VH with P114S
VL: B5 VL with V41L, T44R, G52A, S53N, T71A
notes: IgG made in Expi293; also called #13; 13
B21: #16m (antibody, V domains shown)
VH: B5 VH with A24G, Q115R, L118T
VL: B5 VL with P8L, V10A, A13T, V41L, T44R, G52A, S53N, D83E
notes: Germline-edited (m) form of 3H8, light chain edited; IgG; also called 3H8 (modified)
B22: #20m (antibody, V domains shown)
VH: B1 VH
VL: B5 VL with T71A, A82T, D83E
notes: Germline-edited (m) form of 3E10, light chain edited; IgG; also called 3E10 (modified)
B23: #17m (antibody, V domains shown)
VH: B5 VH with K13Q, S21A
VL: B5 VL with V41L, T44R, G52A, S53N, T71A, D83E
notes: Germline-edited (m) form of 4E1, light chain edited; IgG; also called 4E1 (modified)
B24: 2H1 (antibody, V domains shown)
VH: B5 VH with E1Q, Q3T, V5K, L11V, K13Q, P14S, G16R
VL: B5 VL with V41L, T44R, F51Y, G52A, S53N, P61A, T71A
notes: IgG made in Expi293; also called #9
B25: 2G1 (antibody, V domains shown)
VH: B1 VH with E1Q, Q3T, V5K
VL: B5 VL with V41L, T71A, A82T, D83E
notes: IgG made in Expi293; also called #21; 21
B26: 4H1 (antibody, V domains shown)
VH: B5 VH with A24G
VL: B5 VL with T71A, S92P, G111R
notes: IgG made in Expi293; also called #3
B27: 13C2 (antibody, V domains shown)
VH: B1 VH
VL: B5 VL with N55D, T71N, S72T, A76T, T78S, D83E
notes: IgG made in Expi293; also called #25; 25
B28: 12C11 (antibody, V domains shown)
VH: B1 VH with G44R
VL: B5 VL with T71A, A82T, D83E
notes: IgG made in Expi293; also called #19; 19
B29: #27m (antibody, V domains shown)
VH: B1 VH with P114S
VL: B2 VL with S1Q, Y2S, E3V
notes: Germline-edited (m) form of 10A6, light chain edited; IgG; also called 10A6 (modified)
B30: #33m (antibody, V domains shown)
VH: EVQLVESGGGLVKPGGSLRLSCAASGFRLSSYGMNWVRQAPGKGLEWVSSISASSSFINYADSVRDRFTISRDNAKNSLYLQMNSLRAEDTAVYYCARDDYGSGSYSNWFDPWGQGTLVTVSS
VL: B5 VL with S25N, I29L, V41L, T44R, G52A, S53N, T71A, G79S
notes: Germline-edited (m) form of 4G1, heavy chain edited; IgG; also called 4G1 (modified)
B31: #15m (antibody, V domains shown)
VH: EVQLVESGGGVVQPGRSLRLACAASGFTFNSYAMHWVRQAPGKGLEWVSSITGGSSYVDYSASVKGRFTISRDNAQSSLYLQMNSLRAEDTAVYYCARDMYGLGSYYSPNYFDPWGQGTLVTVSS
VL: B5 VL with V41L, T44R, G52A, S53N, D83E, R95S, H99Y
notes: Germline-edited (m) form of 12B11, light chain edited; IgG; also called 12B11 (modified)
B32: 4G2 (antibody, V domains shown)
VH: B1 VH
VL: B2 VL with S1Q, Y2S, E3V, Y99H
notes: IgG made in Expi293; also called #28; 28
B33: 4G1 (antibody, V domains shown)
VH: B30 VH with E1Q, Q3T, V5K
VL: B5 VL with S25N, I29L, V41L, T44R, G52A, S53N, T71A, G79S
notes: IgG made in Expi293; also called #33; 33
B34: #11m (antibody, V domains shown)
VH: B5 VH with S30T, T33R, S55G, S56N, V58I, D59E, S61A, A62D
VL: B5 VL with V41L, T44R, G52A, S53N, T71A
notes: Germline-edited (m) form of 12E9, light chain edited; IgG; also called 12E9 (modified)
B35: 12B11 (antibody, V domains shown)
VH: B31 VH
VL: B2 VL with A44R, R47K, M50I, G52A, S54T
notes: IgG made in Expi293; also called #15; 15

Biological target: DS-Cav1 (RSV F-protein, pre-form, in-house) (respiratory syncytial virus (RSV), UniProt P03420 26-513)
Experiment: ELISA, coated DS-Cav1, IgG titrated

DS-Cav1 (RSV F-protein, pre-form, in-house), sequence (P03420 26-524): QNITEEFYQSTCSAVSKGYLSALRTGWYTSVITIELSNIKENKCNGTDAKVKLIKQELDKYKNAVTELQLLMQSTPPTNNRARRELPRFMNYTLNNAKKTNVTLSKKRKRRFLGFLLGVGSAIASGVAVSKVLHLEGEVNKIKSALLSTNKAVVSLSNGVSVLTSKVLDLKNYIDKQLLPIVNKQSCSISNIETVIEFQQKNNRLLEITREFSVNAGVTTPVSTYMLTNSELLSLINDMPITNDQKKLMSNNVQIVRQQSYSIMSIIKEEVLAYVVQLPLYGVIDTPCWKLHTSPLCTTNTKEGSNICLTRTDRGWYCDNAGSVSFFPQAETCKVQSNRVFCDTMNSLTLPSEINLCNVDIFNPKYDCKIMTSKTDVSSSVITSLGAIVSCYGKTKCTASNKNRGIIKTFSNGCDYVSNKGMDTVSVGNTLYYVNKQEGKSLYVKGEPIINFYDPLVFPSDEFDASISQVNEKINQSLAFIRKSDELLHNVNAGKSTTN

Binder	Kd [nM]
B1	~1.84
B2	~1.56
B3	~0.66
B4	~0.45
B5	~1.01
B6	~0.85
B7	~0.34
B8	~0.38
B9	~0.51
B10	~0.42
B11	~0.33
B12	~0.48
B13	~0.57
B14	~1.82
B15	~0.52
B16	~0.56
B17	~0.43
B18	~0.38

Binder	Kd [nM]
B19	~0.98
B20	~1.73
B21	~0.97
B22	~0.88
B23	~1.13
B24	~1.95
B25	~0.55
B26	~1.73
B27	~1.16
B28	~0.72
B29	~1.41
B30	~0.97
B31	~1.2
B32	~1.05
B33	~0.27
B34	~2.01
B35	~0.72
